Data: the DeepSol protein solubility set

assay: soluble on expression in E. coli; label from the status in PepcDB or PDB records

Soluble on expression in E. coli, not soluble:
MGSDKIHHHHHHMKIMVITKNILSETAFQNRLQHLDHQVFCTTCLIGEIKESHLFYRKFDAIILSETIPRKEQYLYLKELARVKTPLFLRSEDIPTSEELSISYQYGILNWLRLDATLDTLRENLLLAELNKPIQREDEKLDVEGIKLTAAERALLAVLYSTPKEHLPMERLCKLIYDTEETANNRKKMTKQLTKLNKKIQVGGFKKQGIQNTRYKGYKLHPQLLPYIGELFT
MGSDKIHHHHHHMKISLAPISYCWSKSDVEHFYQQVALSNIDTVYLGETVCSRRRELKFNNYLDLANMLKSHGKHVVLSTMALIEAQSELNELKRAIDNGDFSIEANDMAAVHYAHQAKVPFVCGPTINNYNRTSLNLLHQKGMYRFVMPCELSQQWLNTVINQGDKPAFEIEVLGHGYLPLAHSARCFTAKHYQLPKDKCQTICQRHSKGLLAQTQESQPLLRLNGIQTQSAAQVNLINQIPQMIDMGIDYWRISPNKLTDVAMGSELAHVLAQITEDPFNSKALITKQFNDNKQASIINHHCNGYWLGLPGMDYSLEPNTPAG
MGSDKIHHHHHHMKITKATDITLNDSCYLIYGNPGFGKTSVLKYIPGKTLVIDIDKSSKVLSGCENISIAEVDTHKIWDEWLNVVKELLKGAAEPFDTIVVDNVSELFRACLANLGREGKNHRVPSQADYQRVDFTILDSLRALLQLKKRIVFTAWETSDQWTDENGMIYNRAMPDIRSKILNNFLGLTDVVARLVKKTTEDGEEVRGFILQPSASVYAKNRLDDRKGCKVDELFTTELPS
MGSDKIHHHHHHMKKFIVEPEFWELFPETKIGIVLAKNIDNSMESSAEIKKNLDEANENAEQFLEAAVFSENPVVSVWRKAYQKFKTKKGARSSIENLLKRVDKGKAVGSINPLVDIYNSISLNYGLPAGGEDIDTFAGNLRLTKAVGGEHFLALGDDEADNALPGEICYLDDEGAVCRSWNWRDGQRTMLTEQTKNAFLIIESVDPERGEVLDAATQKLAELSEKYLGGTAQVLLVTKENPEISLD
MGSDKIHHHHHHMKKFTLDYLSPRVVFGAGTASALPDEIGRLGARRPLVLSSPEQRELAKDIVRPIGDRVAGYFDGATMHVPVDVIQKAERAFNDTDADSIIAIGGGSTTGLAKILSMNLDVPSLVIPTTYAGSEMTTIWGVTEGGMKRTGRDPKVLPKTVIYDPLLTVDLPLAISVTSALNAIAHAAEGLYSADLNPVLETMCKQGICALFDAIPRLVAKPTDAEARTDALFGAWMCGTALCHLGMGLHHKLCHTLGGTLNLPHAETHAIVLPHALAYNLPYAAPAERLLQEVAGSSDVPSALYDLARNAGAPLSLAEIGMRPEDIPRVRDLALRDQYPNPRPLESDALETLLVNAFRGRRPDFK
MGSDKIHHHHHHMKKIAIFCHNFFSNGTVKIALSQAEVLQEAGQDVHLFVFHKEGDFMPPENVTIHYLYDAGQKPSLQEQRQHLKAKVAEAEQSGKFSLFLSNSTDCDVVVSGCDFEPCYYFCHCALKQELLMELKRGPVHFWRRWKKAKALIGKKIITVSNGIADELRATSWLKPQSVQTIYNPFRLEEIRKKTQEVIAEIPNVPYMIHVGRVTRQKRHDILFKALRDMPTAPKLVLLCNRPKKARKLAKKYGVEHRIITPGFQHNPYAWIAKAELMLLSSDFEGLPTVVIESLACGTPVVSTDCPHGPNEILTGHLAQYLVPVRQPALLAQKALECLASPPALDNLEILKAVDSQYIAAQYINLAQ
MGSDKIHHHHHHMKKIRLGIYIEDSEYGDRLTCYFMNHYKVQLEIHMYTMKEQLEHLEGEIDIMLSSELDQWNNKYIPLIQIVEETPIESEEGIYFVEKYQEVNRIVEEILKHVGGEVRDLKSEGSLIGQTRLISVYSLADNQYQMPFAMTLSSILSENEKVLLMDFQENSGLSRMLEQSVEHNLDELLVMAESGRYSTNRINSCIGRKHKLDYVYPIENTECLCEINTVICNNLLQMLGKEMHYDCIVLNMGTRFKGFFDILDRCSDIYLVQKKGGISQWREYEFTEELMERGLSNVVERIKLIEPPVITTPVSTCDKLVELWKWNEFGDVIRNMTRGISCAG
MGSDKIHHHHHHMKKISYIFASILLTASLSGCNDFLDVTPSDQYSDASVFTSTEGAQQVLIGAYDWFTNGHYAHYTNQYIFFMPDVMADDAMVNSTGNYNRFVSPYQYSITPSSTYSVDPWIGCYSLIDNCNAILDNLETLPESSERNRIEGESLALRTYAYHYLIRMYAKPVNKYPDNPGVILRLTSSTTDIPRSTVKDCYVQMVNDIEKACTLLTGTSSSSKCYITEQAAHGIAARIYLDLGDYTNGTSHANKALSEITLMSKADYKNKFCENNTETIWYFTCTSTDKQSFLSLPAFWYYCDQDSTYVKDGYSSLGVAKELIDIFDDTDIRKTLFVKIDGKYYKRNGSYVTCKINSRKNDDSDGTKGSGTVAFAEGDYNMMRGSEMYLIIAELAADNNHEDEALAALNKVREARGISAYSGTGDVLKTEIQNERRRELFAEGHRLFDLKRRDLPMDRSNLTLDWSRVGLIPAGSDKLEMPIPQNEIDANGALTIADQNPAYK
MGSDKIHHHHHHMKKLICISLYEDLSMTTYDLSKVDNAELIGIVENASEGTLFVFTCDRPNGSSVIMCPGGGFLKTNLENEGIDFAEWFTKLGITYIVFKYRMPHGNPDVPEQDTRLALKVVREKFPEFCDKLGVMGASIGGYLATFSATLLPDDEKPDFQILMYPVVSVDDRLTHFPCRERMFGHSYSPDKMEQYSPIEHITSGTPAAFIVAAADDAVVSPLNGIMYAARLQKADIPISLHIYPAGGHGFGYNDSFVYKQEWLQELGEWLAKL
MGSDKIHHHHHHMKKRFKYRTLEEMRWEAITLGIDLPLSGDFDVFRDLVDLGSKTIPNRFVDQPMEGNDAQLDGTPGPLTLRRYRKLAEGGAGVIWVEAIAVSREARGNDRQLMLTEETVNSFRSFVAEIKSVSLKTKNFEPYIVAQLTHPGRFGKNRKILFHDKFLDEKYGITEDFPLMSDEELDSLKEQYLRAAKFAKTAGFDAVDIKACHRYLLSELLAAHTREGKYGGSYENRTKLLKDIVRLVRKEVEIDITVRLNLSDFIPYPYGWGSTEEGTLDFTEPGRLLKELEELGVKIINVTASTPYLKPHINRPYDEMGKYNPPEHPIVGAMRLLNLAKLAKETLSKTLVVASGFTWFRQFAPYVAAGMLKNGWCDFVGFGRMTFAYPDYPKDILTKGELDPKKVCITCNKCAELKAAGESCGCVVRDGEVYLPIYRKMEESKKS
MGSDKIHHHHHHMKKYVLSLALLGSLLGASELKYQEFDGFKSPESIFVDKNYVYVSNVGEKLEPLAKDNDGFISKLDKNGKVLEYKFLTHLNAPKGMMEIGKTLYVVDIDVLRGFDLKTKKEIFNLPIKGAIFLNDIEKLDDNTLLVSDTGTGLILKVDLKTKQYDELLKLDLAKFGGPNGLYLDRKKHKLFIAGYHPDGVSGGVVMAYDLNTKELSIIKNEKESYDGIVPYKDGLLVSSWGNNLNGYIYNLDNVKSVKLELPLMKGPADIFIEGNILWIPKMVEGKIFKVELNK
MGSDKIHHHHHHMKLAKKYYAVRKGRVPGIYKTWKEAEEQVKGFPGAEYKSFERLEDAKAYMEGKNECICPELDTETMIAYVDGSYDEVCGSGIVLCYRGKKEEYYFWTNIEEFKDSRNITGEIMAALFAMDYALKKGARKLVLRYDLEGLEKWATEEYRTNKLVTKVYRHYYRKFCQMGLKVVFEKIKSHSGNFCNDEADSLAKKASKKESNVEWMPEDFESIIRTLTKKGGCL
MGSDKIHHHHHHMKLCSVTKIWDKSAHNAFTDLALYRGKLYCVFREASAHVSPDGALRILCTDNDGQDWHSVALIEADFADLRDGKLVIEGDSLFLFGGAAMHEGKGEGMRSYCWQSDDGIHWSAPRALVKEREWLWRITPHKGYFYGIAYYCHEHDGYAALYKSDANTDFYPLVEKLSQAGYVNESGLVFDEEDKAICLLRRDPLWLTDERALLGESAPPYTQWHWQTANCRVGGPVTFLYQGQLYGVVRLYDGRVRTALVAIDRQSAQIAELLTLPSGGDTSYAGVVLSDNILMVSYYSSHEGDCAIYFAKIAL
MGSDKIHHHHHHMKLETIDYRAADSAKRFVESLRETGFGVLSNHPIDKELVERIYTEWQAFFNSEAKNEFMFNRETHDGFFPASISETAKGHTVKDIKEYYHVYPWGRIPDSLRANILAYYEKANTLASELLEWIETYSPDEIKAKFSIPLPEMIANSHKTLLRILHYPPMTGDEEMGAIRAAAHEDINLITVLPTANEPGLQVKAKDGSWLDVPSDFGNIIINIGDMLQEASDGYFPSTSHRVINPEGTDKTKSRISLPLFLHPHPSVVLSERYTADSYLMERLRELGVL
MGSDKIHHHHHHMKLIDLHVHSYHSDGVLAPAVLVAMAAERGLASLAIADHDAVDGIDEAVAEGVRLGVDVIPAVELSVELGRFSDLHILGYCIDHHDPAFRDKLAGFRSARDNRGKAILEKINRRLLHSRKAPLSYDEVLSMAGGAVGRPHIGRVLVDNGYARDMEDAFRRYLIPCNVPKRYMPAGEAIAEIRRIGGVSVLAHPPTITDDRRRLRQVVEQLAQLGLDGLEVFNNLCFKDDMLYLERLAEEFGLLMTGGSDFHGFEDDVELGRGRGGLAVAHSLAEKVKELAAQRKHSHA
MGSDKIHHHHHHMKLNFTGHTDPGLIRSNNQDDYYIDPEGRFFIVADGMGGHAGGEEASRIATREIKAYLTANWDVSKPSSELLEQALWQANEAILQDQQNHPERADMGTTAVVVIFRNDEQWCAHVGDSRLYRLRETQLEQVTEDHTWVARAIKIGDITAEEARVHPFRHVLSRCLGREDLHQVDVQPLDTKIGDRLLLCSDGLTEELPDQKIAHNLQINSLLDQSALSLVEDAKEQGGHDNITVVIVALE
MGSDKIHHHHHHMKMLVGKIPSELLAKILEKLKPGDKVIVGPKVGIDATAIDFGDYVLVASTDPITGTEEKIGFYAVNINANDVATFGARPKWFLVTILLPEGSEFNDVITIMDEVREVAEGMGISIVGGHTEVTPGLKKPIVVGTMLGEVEKENLVVPNPRPGDAIILTKGAGIEGTSIIAHEREEELKGVFGSNFVERAKAFINEISIVREALLSREFATAMHDPTEGGIANGLHEMADINGLGFRIFANKVIIREETRKICHFYDLDPLALISSGALLISTPRDHAKFLIERLLSHGIQASIIGEFLAEKKRVIIENGAERPLKRPESDELWKVV
MGSDKIHHHHHHMKNAMLVLCVFLGLSACADRDLMPIVPEAVEIGTPYTVFSTTTRAQEADGTYGFRRSEQLRMMEMTVTIPPNHSPGELSYRYKNPDPHKNFAIAEELPVASVSDLRARFLREQRENNWPLREVTIFVHGYNSTHPETAYRSAQMAHDVELPGSLVMYSWPSRGRAFGYAYDIDSMLFARDGLEETVRRVKQAGAERIILVAHSMGTALAMEMLRQADLRNPGWAARTLNGGVILISPDLDVDVFESQMMDLKQVPQPFGVMVSEKDHILNISGRLRGTSEGERLGNIKSAERLMKWPIEVIDLTAFNADAASGHFVAATSPSLLAVIRSASNVSRLFGPVDPTLFQQILPQSQTIVTDHGKLMLARQQRQEER
